The results in this text go back to US20220220212A1 (RESEARCH FOUNDATION FOR THE STATE UNIVERSITY OF NEW YORK, published 2022).

Test [1] deals with T1, ECL2 domain of the CCR2 chemokine receptor.
T1 construct: also called CCR2 ECL2; 2nd extracellular loop of CCR2
T1 peptide: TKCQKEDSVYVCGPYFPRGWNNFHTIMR
Briefly: binding assay of FIG. 16A,B on the ECL2 domain (method not given).

The target of test [2] is T2, biotinylated N-terminal domain CCR2 peptide (murine, biotinylated (position not given)).
T2 construct: Bought from ABclonal; also called CCR2 N-terminal domain; CCR2 N-terminus
T2 peptide: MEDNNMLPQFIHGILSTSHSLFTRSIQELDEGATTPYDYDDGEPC
Briefly: phage ELISA on the N-terminal peptide. The procedure: Nunc MaxiSorp 96-well plates were coated with NeutrAvidin at 5 μg/mL and incubated overnight at 4° C. The plate was thoroughly washed with 0.1% PBS-Tween (PBST), and 5 μg/mL biotinylated N-terminal domain CCR2 peptide ([…] (SEQ ID NO:58); ABclonal, Woburn, Mass.) added and incubated for 1 h at room temperature. The wells were washed with 0.1% PBST and then blocked with casein blocking buffer for 1 h at room temperature. The wells were washed with 0.1% PBST followed by incubation of serially diluted scFv for 1 h at room temperature before being washed five times with 0.1% PBST. Washes were followed by the addition of 100 uL of the respective horse-radish peroxidase (HRP)-linked monoclonal antibody (mAb) for 1 h at room temperature with rocking. An anti-M13 mAb was used to detect phages (#27-9421-01, GE healthcare, Chicago, Ill.) and an anti-flag mAb was used to detect scFv (#A8592, Sigma Aldrich, St. Louis, Mo.). The wells were washed with 0.1% PBST followed by the addition of TMB-ELISA substrate. After 10 min incubation, 2 M H₂SO₄ was added to stop the reaction. The absorbance was measured at 450 nm with a FilterMax F3 & F5 multi-mode microplate reader (Molecular Devices, Sunnyvale, Calif.). A 1:1 binding ratio Hill model was used to fit the binding interaction data.

B1: ECL2-scFv (scFv)
scFv: DYKDDDDKLQSVLTQPPSASGTPGQRVTISCSGSSSNIGSHTVNWYQQLPGTAPKLLIYRNNQRPSGVPDRFSGSKSGTSASLAISGLRSEDEADYYCAAWDDSLSGVVFGGGTKLTVLGEGKSSGSGSESKASQVTLKESGAEVKKPGASVKVSCKASGYTFTNFYIHWVRRAPGQGLEWMGIINPSDGRTTYAQKFQGRVTMTRDTSTSTLYMELTSLRSEDTAVYYCGRGGHYSNYFGQPSTWGQGTLVTVSSVEAS
notes: the construct as expressed is not described; also called 4h-scFv
Usually Kd stands for the concentration at which binding is half-saturated. Read a high Kd as lower affinity. In test [1], B1 gave a Kd of 5.3 nM. This counts as single-digit nanomolar.

B2: phage clone 26B (scFv)
scFv: LQSVLTQPPSASGTPGQRVTISCSGSSSNIGSNYVYWYQQLPGTAPKLLIYRNNQRPSGVPDRFSGSKSGTSASLAISGLQSEDEADYYCAAWDDSLNGVVFGGGTELTVLGEGKSSGSGSESKASQVTLKESGAEVKKPGASVKVSCKASGYTFTNFYIHWVRRAPGQGLEWMGIINPSDGRTTYAQKFQGRVTMTRDTSTSTLYMELTSLRSEDTAVYYCGRGGHYSNYFGQPSTWGQGTLVTVSS
notes: also called 26B-scFv
As to B2, in test [2], the binding result is recorded as “binds”.

B3: phage clone 25B (scFv)
scFv: LQSVLTQPPSVSGAPGQKVTISCSGSSSNIGNNYVSWYQQLPGTAPKLLIYGNNKRPSGIPDRFSGSKSGTSATLGITGLQTGDEADYYCATWDDSLSAVVFGGGTKLTVLGEGKSSGSGSESKASQVTLKESGAEVKKPGASVKVSCKASGYTFTNFYIHWVRRAPGQGLEWMGIINPSDGRTTYAQKFQGRVTMTRDTSTSTLYMELTSLRSEDTAVYYCGRGGHYSNYFGQPSTWGQGTLVTVSS
notes: also called 25B-scFv
With B3, the binding result in test [2] is reported as “binds”.

B4: phage clone 13F (scFv)
scFv: LQAVLTQPSSLSASPGASASLTCILRSDFSVVTQRVYWYQQKPGSPPRYLLRYNSDSDKRLGSGVPSRFSGSKDVSANAASLLISGLQSDDEADYYCVIWHNSAVVFGGGTKLTVLGEGKSSGSGSESKASEVQLLESGAEVKKPGESLKISCKGSGYSFTSYWIGWVRQMPGKGLEWMGIIYPGDSDTRYSPSFQGQVTISADKSISTAYLQWSSLKASDTAMYYCARRPQYYDILTGWHAGWFDPWGQGTLVTVSS
notes: also called 13F-scFv
On to B4, for which the binding result in test [2] is given as “binds”.
